Measured values as given in patent US20200317802A1 (Merck KGaA, published 2020).

T1: recombinant human ADAMTS5 (R&D Systems cat #2198-AD) (human, UniProt Q9UNA0 262-622, limits assumed)
T1 sequence: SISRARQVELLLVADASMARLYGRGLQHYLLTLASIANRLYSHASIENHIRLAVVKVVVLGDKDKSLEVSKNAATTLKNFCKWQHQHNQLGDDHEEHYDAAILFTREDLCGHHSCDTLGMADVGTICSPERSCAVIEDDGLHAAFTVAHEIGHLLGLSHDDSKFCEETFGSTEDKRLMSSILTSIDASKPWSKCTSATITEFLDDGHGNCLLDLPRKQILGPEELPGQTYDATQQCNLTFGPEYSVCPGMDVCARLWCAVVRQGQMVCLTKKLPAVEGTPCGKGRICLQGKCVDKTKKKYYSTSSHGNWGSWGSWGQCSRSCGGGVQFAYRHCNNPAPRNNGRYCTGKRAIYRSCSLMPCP


Columns and labels:
[1] = biological target: T1, recombinant human ADAMTS5 (R&D Systems …); experiment: cell-based or functional assay
[2] = biological target: T1, recombinant human ADAMTS5 (R&D Systems …); experiment: cell-based or functional assay; remark: listed apart in the source
[3] = biological target: T1, recombinant human ADAMTS5 (R&D Systems …); experiment: binding ELISA, periplasmic extract on coated human ADAMTS5
Procedure: In a first step, periplasmic extracts were tested for binding to recombinant human ADAMTS5 by binding ELISA. In brief, recombinant human ADAMTS5 (R&D Systems, Minneapolis, US; cat #2198-AD) at a concentration of 1 μg/ml was coated on 384-well MaxiSorp plates (Nunc, Wiesbaden, Germany). Wells were blocked with a casein solution (1%). After addition of a 10-fold dilution of the periplasmic extracts, Nanobody binding was detected using a mouse anti-Flag-HRP conjugate (Sigma, St. Louis, US) and a subsequent enzymatic reaction in the presence of the substrate esTMB (3,3′,5,5′-tetramentylbenzidine) (SDT, Brussels, Belgium). Clones showing ELISA signals higher than the sum of the average signal of the irrelevant Nanobody controls and 3 times the standard deviation of the irrelevant Nanobody controls were considered to encode positive human ADAMTS5 binding Nanobodies.

Binder | FRET assay % inh, periplasmic extract [1] | FRET assay vi (U/min), periplasmic extract [1] | Human AlphaLISA % inhibition [2] | Human AlphaLISA IC50 [2] | binding ELISA (OD 450 nm) [3]
Nanobody 9D09 (VHH) VHH: EVQLVESGGGLVQAGGSLRLSCAASGLTFSSYTMGWFRQAPGQEREFVSAISWNTFTTYYVDSVKDRFTVSRDNAKNTLYLRMNSLKPEDTAVYYCAAAGGSPRQHEPYEYRVWGQGTLVTVSS | 102% | 0 U/min | 100% | 2.6 nM | 
Nanobody 2D12 (VHH, tagged as tested (anti-Flag detection, IMAC); also called 02D12) VHH: EVQLVESGGGLVQAGDSLRLSCAASGRTFSTYFVGWFRQAPGKERDFVAAISRNGARTYYYDSVAGLFTISRDNAKNTVYLQMSSLKPEDTAVYYCAAARISPSDPSNEDGYDYWGQGTLVTVSS | 90% | 2 U/min | 100% | 0.69 nM | 1.35 OD 450 nm
Nanobody 2A02 (VHH, tagged as tested (anti-Flag detection, IMAC); also called 02A02) VHH: EVQLVESGGGLVQPGGSLRLSCAASRRTFSSYVMAWFRQAPGKEREFVAAISRSGDSTYYYDSLEGRFTISRDNAKNTVHLQMNSLKPEDTAVYICAASRAPSFRTIDAINYYDYWGQGTLVTVSS | 91% | 2 U/min | 99% | 4.3 nM | 1.65 OD 450 nm
Nanobody 9A05 (VHH) VHH: EVQLVESGGGFVQAGGSLRLSCAASRRTISSGTMGWFRQAPGKEREFVAAIRWSSGITFYPDSVEGRFTISGDNAKNTVSLQMNSLKPEDTAVYYCAADRSALRDPSFEVNYEYWGRGTLVTVSS | 113% | -3 U/min | 100% | 0.32 nM | 
Nanobody 13E02 (VHH) VHH: EVQLVESGGGLVQAGGSLRLSCVASGSIFSIDAMGWYRQAPGKERELVASVTTGASPNYGDSVTGRFTASRDRAKNALYLQMNSLKPEDTAVYYCNLIMTIPGGSQIMYWGQGTLVTVSS | 99% | 0 U/min | 100% | 2.2 nM | 
Nanobody 9D10 (VHH) VHH: EVQLVESGGGLVQAGGSLRLSCAASGRALSSSIMGWFRQAPGKEREFVAAITWSGGRAYYADVSDFEKGRFTISRDNGKNTVNLQMKGLKPEDTAVYYCAAALAIPVTMSPHEYPYWGQGTLVTVSS | 111% | -2 U/min | 100% | 0.97 nM | 
Nanobody 3B03 (VHH, tagged as tested (anti-Flag detection, IMAC); also called 03B03) VHH: EVQLVESGGDLVQPGGSLRLSCAASGSDVVVNDMGWYRQAPGKQRELVADITTGGRTNYADSVKGRFTISRDNVKNTVYLQMNSLKPEDTAVYYCNAQVGDSDDDVWYAYWGQGTLVTVSS | 93% | 2 U/min | 100% | 12 nM | 2.29 OD 450 nm
Nanobody 2C10 (VHH, tagged as tested (anti-Flag detection, IMAC); also called 02C10) VHH: EVQLVESGGGLVQAGGSLRLSCATSGFTFSPYYMGWFRQAPGKERDFVAAITRSRGTTYYLDSTEGRFTISRDNAKNTMYLQMNSLNPEDTAVYYCAAGRSPGDPSRTYLYEYWGQGTLVTVSS | 90% | 2 U/min | 100% | 0.45 nM | 1.63 OD 450 nm
Nanobody 3D02 (VHH, tagged as tested (anti-Flag detection, IMAC); also called 03D02) VHH: EVQLVESGGGLVQAGASLRLSCATSGFTFSPYYMGWFRQAPGKERDFVAAISWSRGILYYTDSTEGRFTISRDNAKNTMYLQMDNLNPEDTAVYYCAASRSPGDPSRTYLYDYWGQGTLVTVSS | 111% | -2 U/min | 100% | 0.22 nM | 2.58 OD 450 nm
Nanobody 7B11 (VHH, tagged as tested (anti-Flag detection, IMAC); also called 07B11) VHH: EVQLVESGGGLVQPGGSLRLSCAASGSIFSINVMGWYRQAPGKQRELVAAIISGGRTNYADSVKGRFTISRDNSKNTVYLQMNSLRPEDTAVYYCNAEVDAGIYAYGYWGQGTLVTVSS | 90% | 2 U/min | 100% | 3.6 nM | 0.368 OD 450 nm
Nanobody 2G01 (VHH, tagged as tested (anti-Flag detection, IMAC); also called 02G01) VHH: EVQLVESGGGLVQAGGSLRLSCAASGRTTFSSYAMGWFRQAPGKERAFVATIWSGGLTVYADSAKGRFTISRDNAKNTVYLQMNSLRPEDTAVYYCAAEAVGTYYTPDGWTYWGQGTLVTVSS | 55% | 10 U/min |  |  | 1.71 OD 450 nm
Nanobody 3F04 (VHH, tagged as tested (anti-Flag detection, IMAC); also called 03F04) VHH: EVQLVESGGGSVQAGGSLRLSCVASGRYPMAWFRQAPGKEREFVAGVSWGGDRTYYADSVQGRFTVSRDYAKNTLYLQMNSLKPEDAAVYYCAGDPWGRLFRVKDNYSDWGQGTLVTVSS | 8% | 19 U/min |  |  | 2.56 OD 450 nm
